Laboratory results from the RNAGym collection of RNA variant scans (doi:10.7554/elife.90254).

B1: LINE1-mini (parent)
chain: GGCAGAGCUCAACACAGCGUGGCAAAGUGGCUGUGGCUAGACUGCC

Variants of: B1
Test: self-cleavage, relative activity (ratio to wild type); higher = more cleavage; in vitro, sequencing; the parent is a self-cleaving ribozyme

Variant | self-cleavage
G30U C37G | 0.05
C3G G40A | 0.39
A4G A11C | 0.04
C15U G21A | 1.23
G5C G27C | 0.06
C13G C37U | 0.37
U9C C42G | 0.03
A6G A11G | 0.02
A16C U20A | 0.05
G1A A11G | 0.06
C15G C18A | 0.09
G7C C13U | 0.14
A11G G35C | 0.02
G1U G40C | 0.04
G30A G35U | 0.09
A24G A39U | 1.31
A11C G27A | 0.11
G7U G22C | 0.04
C23G U38G | 0.02
C15G A41U | 0.06
C23U G30A | 2.05
G7C U34G | 0.02
A11C C37G | 0.01
A11U G33A | 0.03

Variant | self-cleavage
U38A A39U | 0.85
C13A A39C | 0.17
C18G C46U | 0.4
U20G G22U | 0.51
C23U G33U | 0.16
A4G G30C | 0.91
G2U G44A | 0.08
G27A C37U | 0.05
U38A A41U | 0.1
G19U C45U | 1.38
G27U U38C | 0.58
C37A G40U | 0.2
A6U G17A | 0.11
A4G G35U | 0.19
C37G C42U | 0.02
G7A G44C | 0.28
C10U G33U | 0.04
A6G G35A | 0.05
A11C A24U | 0.11
C15G A24U | 0.02
A24U G40A | 0.14
G7U U34G | 0.05
G2C C8G | 0.08
G1A A41C | 0.09

Variant | self-cleavage
A25G G44C | 0.19
C13G G29A | 0.19
A12C U34G | 0.02
A12C G33C | 0.01
A6G A12U | 0.09
G1A A26U | 0.53
C8G C10U | 0.06
C37U G40A | 0.14
C13G G19C | 0.06
A4U A11U | 0.04
C13U U32G | 0.21
U9G A26U | 0.15
A4C G27A | 0.17
A6C C13G | 0.15
G29C A39C | 0.06
C10G C46A | 0.09
G17U A25C | 0.12
G1U C46U | 0.43
A6G U34C | 0.09
G1U A39G | 0.05
A6G G22U | 0.12
G5U G29C | 0.04
G44C C46G | 0.08
C3A G29C | 0.25

Variant | self-cleavage
A14G A25U | 0.53
A16G U28G | 0.36
U9C C15A | 0.03
C8U A12G | 0.08
G5C U32G | 0.07
A4C U28A | 0.07
A4U U34A | 0.08
U38G G44A | 0.03
C10U C13U | 0.06
A14G C23A | 0.53
C13U U20C | 0.09
C10G A16U | 0.06
G40C A41U | 0.14
A26C G30U | 1.45
A25U | 1.21
G21C C45A | 0.49
U28G C37A | 0.03
U38A C45G | 0.26
U28A G29C | 0.16
C10G A41C | 0.01
C3U C37U | 0.14
C15A G44A | 0.08
G30A U34A | 0.05
G29U C42U | 0.44

Variant | self-cleavage
C13U U38C | 0.1
U9A | 0.17
A12U G19U | 0.19
G1U G27C | 0.27
G29U G44U | 0.31
A14G G33U | 0.16
A4G A24G | 1.09
A4U G22A | 0.16
A4U U43A | 0.67
A26U U32A | 0.11
C13A G27C | 0.1
C3G G5C | 0.58
C31U G33C | 0.15
A6G U28G | 0.09
A14U C37A | 0.08
C23U G35A | 0.19
C8A U28A | 0.17
G30C G36C | 0.06
C37U G40U | 0.16
C8U A24U | 0.33
G21A G22U | 0.56
G5C C45G | 0.05
G7U U9A | 0.23
C18G U20C | 0.4

Variant | self-cleavage
A12G U20C | 0.08
A14U C46U | 0.28
A14U C15A | 0.16
A4G C31G | 0.31
G22U U43G | 0.03
A11U G21C | 0.12
G19C U20G | 0.4
A11G G27U | 0.03
A6G C15A | 0.05
A4C G19C | 0.07
C15G C23A | 0.06
C8G A12U | 0.13
A26U G36C | 0.13
C23U A24C | 0.71
A12C C42U | 0.01
G7A | 0.2
C10U G36A | 0.08
G22C G40A | 0.09
A11U U34C | 0.05
G1C A6C | 0.04
C37A C42U | 0.16
A14G C18G | 0.21
G5A A16U | 0.07
A12U A16C | 0.05

Variant | self-cleavage
A25G G40U | 0.07
A6C A24U | 1.07
A4U A26U | 0.2
U38C A41U | 0.13
C13G U38G | 0.01
A14C G21U | 0.07
A14U G35A | 0.16
G1A G2C | 0.24
C23G A26C | 0.88
G27C C31A | 0.15
A6G C37G | 0.07
U28C G30C | 0.64
C10G G35U | 0.04
G5C A25C | 0.05
A14U A26U | 0.53
C18U G22A | 1.76
A12G A25C | 0.16
U32C U43A | 0.05
A4G C42G | 0.02
C10U A41G | 0.07
C18G C45G | 0.09
A4G C46G | 0.24
A41U C46G | 0.57
A39U A41U | 0.67

Variant | self-cleavage
A11C G29C | 0.05
G5C G22U | 0.04
C10A A16U | 0.05
G29U C45G | 0.78
C10G U32A | 0.02
C23G C42U | 0.47
G33U G36A | 0.08
G5C C8U | 0.11
G35A C42G | 0.04
G17C U28C | 0.36
C10A C45G | 0.03
U9C U32C | 0.04
G17C G29U | 0.32
G5A C15A | 0.1
G5A | 0.16
C3U | 0.48
U28A C46A | 1.23
G19C C45G | 0.17
A16U G44C | 0.03
G22C A39U | 0.55
G19A G29A | 1.14
G36U G40U | 0.19
G33C G35U | 0.04
C3G G29C | 0.43

Variant | self-cleavage
A16G G36A | 0.53
G19C U32G | 0.43
G1C C42U | 0.04
U9A G17U | 0.13
G7C C37A | 0.09
A14U C45A | 0.07
U9G G29A | 0.08
U28G C37U | 0.03
A39G C45U | 0.06
G21C G44C | 0.4
C8U C31A | 0.21
G1A G19C | 1.28
A12U G44U | 0.11
C3A A25U | 0.79
G5A U43G | 0.86
G1U G17A | 0.1
C42U C46G | 0.19
G33C C45U | 0.05
G29C G44C | 0.29
A16G G22U | 0.63
C10G G44U | 0.04
G22C U32A | 0.04
U9C C10U | 0.04
G27A C37G | 0.02

Variant | self-cleavage
G35C C45G | 0.03
A4U A25U | 0.84
G5A A16C | 0.1
G17A C31U | 0.35
G1U U34C | 0.06
G1U G21A | 0.77
C31A A39U | 0.11
U20G C46U | 0.44
A11C U38G | 0.02
A4U G36U | 0.08
G17U G19U | 0.14
A16U G21A | 0.23
G33C U43A | 0.12
A25C U32G | 0.05
A4G G27C | 0.24
U9G G27A | 0.07
G5A U20A | 0.13
C18U C37A | 0.09
G21A A26G | 1.94
G21C G29C | 0.55
G29C C37U | 0.02
U38G C42U | 0.03
U20A C31U | 0.17
U28G G33A | 0.11

Variant | self-cleavage
U43C G44A | 0.11
G1C A11G | 0.01
U20C U28G | 0.93
G29A U43C | 0.08
G5U G40U | 0.09
G29C U43G | 0.01
U9C U38C | 0.07
A4G A39G | 0.22
G30C G44C | 0.27
C13A C42A | 0.09
A11U C42U | 0.02
A4U G19A | 0.68
C23G G29U | 0.47
A14G G36A | 0.26
C3A C37U | 0.33
G19C A26U | 0.37
G21U G22U | 1.4
G2U A12G | 0.02
C3U C46U | 0.21
U9C G30U | 0.02
U9C A24C | 0.02
G1U U9C | 0.02
A4G U43G | 1.35
A24G U43G | 0.19

Variant | self-cleavage
G17A U32A | 0.06
A14U G35C | 0.11
C13G U43C | 0.02
U9A C15A | 0.13
C15G G44C | 0.04
C15G G36C | 0.03
G2C G40C | 0.07
G17A G30A | 0.57
U28A G44C | 0.62
G19U G30A | 0.96
A26C C46G | 0.75
G17C A25U | 0.87
C8U G19C | 0.17
G30C C45U | 0.88
C13G G19A | 0.2
G29C C31G | 0.34
G21A C46U | 1.39
G29A G35C | 0.09
C15A A26G | 0.06
C3U C23A | 0.55
A11C G35A | 0.03
G7C C15A | 0.14
U34C C37G | 0.04
C8G U28G | 0.06

Variant | self-cleavage
G33U C37G | 0.05
C8A A24G | 0.38
U28C G36A | 0.1
G19A U34C | 0.43
G17C G30C | 0.25
G2A A4C | 0.67
G19A A25U | 1.66
U43A C45G | 0.08
G1A A16U | 0.1
C8A U34C | 0.26
A11C A25C | 0.09
A16U G27A | 0.59
A26G G44U | 0.3
C23A G40A | 0.14
C10G U38C | 0.02
C15G G27A | 0.05
G22A A41G | 0.31
C23G G44U | 0.16
C15A G21C | 0.11
G1C A39C | 0.04
A4U U9C | 0.07
C8G A39G | 0.06
U28A G30C | 0.62
C23U A24G | 0.88

Variant | self-cleavage
C18U U43C | 0.09
G29A G44U | 0.26
G22C G44A | 0.13
A6C G36U | 0.06
C10G C42G | 0.03
C8G C31G | 0.05
U20A G21A | 0.76
C18G C45A | 0.26
G21C U43G | 0.02
G1A G30C | 1.51
C18A A39C | 0.06
C31U A41G | 0.04
G29A G33U | 0.12
A24C C46G | 0.27
A16C A25G | 0.07
C10A U28A | 0.04
C13U G21U | 0.18
U28G G44U | 0.23
A6C G36C | 0.16
G33U C45U | 0.08
G17C U38C | 0.15
A16U G36U | 0.06
